Laboratory results reported in the supplement of paper PMC12764529.
± gives the half width of the 95% confidence interval.

Key:
[1] = folding stability dG unfold (combined trypsin and chymotrypsin); higher = more stable
In short: (§1)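 Unfolding free energy was derived, per protease or combined, by relating Bayesian-fitted K50 values from sequencing counts to a sequence-predicted unfolded-state K50 and a shared folded-state K50. The underlying digests exposed cysteine-free mini-proteins under 80 residues, in a PA-tagged cDNA display construct, to trypsin and chymotrypsin at 11 threefold-diluted concentrations and to a no-protease condition. A filter kept only designs with AlphaFold2 dimer inter-PAE above 15.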

[2] = folding stability dG unfold from chymotrypsin proteolysis; higher = more stable
In short: as §1

[3] = folding stability dG unfold from trypsin proteolysis; higher = more stable
In short: as §1

Row | Sequence | folding stability dG unfold [1] | folding stability dG unfold [2] | folding stability dG unfold [3]
1 | SMTAEVTLTIVYPDGTSTTLPMTFPADDPEALRAAIRAAVAAAGYTPTALQMTFTAQPDGSVRVDVTVTVAS [r1_281_JUSTAS] | 5.61 ± 0.077 kcal/mol | 5.7 ± 0.066 kcal/mol | 4.1 ± 0.059 kcal/mol
2 | SAGPKIEIHYTPNGIHLTIELPGEWIWMMIPVPPGEKVKIRLPGNGLEITARPYDDYVMIRIRIPDAPSAGG [r19_384_TrROS] | 4.74 ± 0.27 kcal/mol | 5.3 ± 0.16 kcal/mol | 3.59 ± 0.083 kcal/mol
3 | SAGRIHVMVFPLDPKDGKWEWVWTFTIDFKPGEKLTLDEIADDIPPKGYMVMIWFTPDTITITIWRRKDSAG [r5_269_TrROS] | 4.96 ± 0.12 kcal/mol | 5.33 ± 0.082 kcal/mol | 3.87 ± 0.092 kcal/mol
4 | SAGKSIKIPYIIRFPSPNGEPHLMRIKEVTINPKPGMVKIKFQMPGKKQTHTVPPNNIEILPDPEEILKSAG [r5_15_TrROS] | -0.0216 ± 0.29 kcal/mol | -0.0282 ± 0.33 kcal/mol | 0.116 ± 0.22 kcal/mol
5 | SAKKTVKLKIEIYKVKVEKLKDGKEKITEVEKIAELEIEAEVDEDGKVTIRIDGKEIEVPAGTSLEELLSAG [r14_909_TrROS_Hall] | 2.76 ± 0.18 kcal/mol | 3.06 ± 0.12 kcal/mol | 2.22 ± 0.17 kcal/mol
6 | SAGGSKKTLTITVKNKETGETVKIKVELTPDGKKIKITIVAKKEEEAKEAAKKLLEELGYKVEIVPSAGGSA [r2_30_TrROS_Hall] | 2.09 ± 0.2 kcal/mol | 1.61 ± 0.066 kcal/mol | 3.15 ± 0.36 kcal/mol
7 | SMKIKIEKVEDGYYKIKIYDKKTKKEYTIIVPKNMKPGQVELVNRNGKKITMTLEEIKKLLPPGAEVEIVSA [r9_250_TrROS_Hall] | 2.21 ± 0.1 kcal/mol | 2.14 ± 0.051 kcal/mol | 2.01 ± 0.074 kcal/mol
8 | SAGGSAMTAEELKGMKVKITLKNGKKIEAKIKKVEVINGEIYIEIDGKKIKLKKNEKYKIEIVEKKSAGGSA [r15_355_TrROS_Hall] | 2.06 ± 0.16 kcal/mol | 2.22 ± 0.067 kcal/mol | 1.84 ± 0.093 kcal/mol
9 | SAGGGMTPTITVTVHYPGETVTITLSSIEEALEYLKKQGLPINPTHSDPNTLVIEFPDGRTVTITLSSAGGS [r8_365_JUSTAS] | 3.98 ± 0.15 kcal/mol | 4.15 ± 0.16 kcal/mol | 3.67 ± 0.15 kcal/mol
10 | SAGGSAGGSAGGLWLTFNFRLTFFNPDGQAMEIEIPIEIRIPPPPVTVPDPDGEEYKYDSAGGSAGGSAGGS [r10_330_TrROS] | 2.87 ± 0.18 kcal/mol | 3 ± 0.069 kcal/mol | 2.39 ± 0.07 kcal/mol
11 | SAGGNIKIKLKGKIYDLNSNKYYDVEIEYDPKTGKAIITTPKGLKFEINPKEKKAEIPSKNYALEIGSAGGS [r16_743_TrMRF] | 1.2 ± 0.16 kcal/mol | 1.37 ± 0.17 kcal/mol | 1.21 ± 0.096 kcal/mol
12 | SAGGSAGGSAGPLSTVTETTTTVPLPNGEVLTVTTYTYPDLGVTTVTTTYPDGTVTTTTIPVSAGGSAGGSA [r18_88_JUSTAS] | 2.47 ± 0.041 kcal/mol | 2.544 ± 0.011 kcal/mol | 2.3 ± 0.077 kcal/mol
13 | SAGGSAGGSAGKVELIETEDKLYLVVEVDGKKEVIEVSKEELEELLAALPPDAKVTILKPSAGGSAGGSAGG [r11_374_TrROS_Hall] | 2.77 ± 0.16 kcal/mol | 2.49 ± 0.12 kcal/mol | 3.17 ± 0.21 kcal/mol
14 | SAGGSAGGSAGGMILVQDKKTKKWYEIKPGESLENLEFPEGVKEVRIYVFNEDGELVELDSAGGSAGGSAGG [r7_763_TrROS_Hall] | 2.28 ± 0.12 kcal/mol | 2.45 ± 0.027 kcal/mol | 1.39 ± 0.043 kcal/mol
15 | SAGGSAPDNKPKPVVREVEFWIMIPFKSAEQAKEIVEELMKFFGGLKVEILEVHPDGYAMIKITIYSAGGSA [r15_387_TrROS] | 5.15 ± 0.11 kcal/mol | 5.38 ± 0.072 kcal/mol | 3.68 ± 0.13 kcal/mol
16 | SAGGSAGGSPVKDPDGKEVVPIQMTFIIRDPEMGKPVLITITFYIDPAPGGKIKDISIDIFPLSAGGSAGGS [r12_0_TrROS] | 4.04 ± 0.17 kcal/mol | 4.29 ± 0.17 kcal/mol | 3.51 ± 0.27 kcal/mol
17 | SAGGSAGGSAKPKLHIHILTAGPFEELAELLEELAKRIFPPELEIDIHIHYIPKELLHPELGSAGGSAGGSA [r18_498_TrMRF] | 2.59 ± 0.077 kcal/mol | 2.51 ± 0.041 kcal/mol | 2.74 ± 0.15 kcal/mol
18 | SAGGSAKPKIKINIFYPKDGQWYVMIQDPGGEEVMGPWDDIDKIIEAGIPADDVEIEWMPMPPGQFSAGGSA [r15_955_TrROS] | 1.09 ± 0.05 kcal/mol | 1.15 ± 0.048 kcal/mol | 1.03 ± 0.014 kcal/mol
19 | SIKIRKEKTPNGYYEITFEFPFPDGWPMTIEANVQVDPENGKVKVDIKIEDPNLPPEFKEFIENFEFKVPSA [r9_715_TrROS] | 2.52 ± 0.23 kcal/mol | 2.97 ± 0.086 kcal/mol | 1.75 ± 0.079 kcal/mol
20 | SAGSSISSISRSPVSTEEDPSTNVRRTTYLEKYPGPPNLLKEVTVTTTFAPDGTPTVTPAVTTLSPALLSAG [r5_48_JUSTAS] | -0.717 ± 0.17 kcal/mol | -0.899 ± 0.68 kcal/mol | -0.817 ± 0.26 kcal/mol
21 | SKKKKKKTIKIKITIKVEKEVKIRIIYNGKEKEITIKPGETKTIEITFPAGKVIIEIYKDGKPIKKIEIKSA [r9_411_TrROS_Hall] | 2.95 ± 0.1 kcal/mol | 3 ± 0.051 kcal/mol | 2.94 ± 0.092 kcal/mol
